Read-outs that look alike come from different tables or passages of the source. No end group written: not given here.
Legend:
[1] = biological activity of amidated recombinant hormones versus synthetic hormone
alpha-amidating enzyme [2] = target: T1, alpha-amidating enzyme (Rattus norvegicus, UniProt P14925); test: kinetic studies of alpha-amidating enzyme with monodansyl L-Tyr-Val-Gly; format: biochemical; settings: pH 7.0, 37° C.
T1 sequence (P14925 36-976): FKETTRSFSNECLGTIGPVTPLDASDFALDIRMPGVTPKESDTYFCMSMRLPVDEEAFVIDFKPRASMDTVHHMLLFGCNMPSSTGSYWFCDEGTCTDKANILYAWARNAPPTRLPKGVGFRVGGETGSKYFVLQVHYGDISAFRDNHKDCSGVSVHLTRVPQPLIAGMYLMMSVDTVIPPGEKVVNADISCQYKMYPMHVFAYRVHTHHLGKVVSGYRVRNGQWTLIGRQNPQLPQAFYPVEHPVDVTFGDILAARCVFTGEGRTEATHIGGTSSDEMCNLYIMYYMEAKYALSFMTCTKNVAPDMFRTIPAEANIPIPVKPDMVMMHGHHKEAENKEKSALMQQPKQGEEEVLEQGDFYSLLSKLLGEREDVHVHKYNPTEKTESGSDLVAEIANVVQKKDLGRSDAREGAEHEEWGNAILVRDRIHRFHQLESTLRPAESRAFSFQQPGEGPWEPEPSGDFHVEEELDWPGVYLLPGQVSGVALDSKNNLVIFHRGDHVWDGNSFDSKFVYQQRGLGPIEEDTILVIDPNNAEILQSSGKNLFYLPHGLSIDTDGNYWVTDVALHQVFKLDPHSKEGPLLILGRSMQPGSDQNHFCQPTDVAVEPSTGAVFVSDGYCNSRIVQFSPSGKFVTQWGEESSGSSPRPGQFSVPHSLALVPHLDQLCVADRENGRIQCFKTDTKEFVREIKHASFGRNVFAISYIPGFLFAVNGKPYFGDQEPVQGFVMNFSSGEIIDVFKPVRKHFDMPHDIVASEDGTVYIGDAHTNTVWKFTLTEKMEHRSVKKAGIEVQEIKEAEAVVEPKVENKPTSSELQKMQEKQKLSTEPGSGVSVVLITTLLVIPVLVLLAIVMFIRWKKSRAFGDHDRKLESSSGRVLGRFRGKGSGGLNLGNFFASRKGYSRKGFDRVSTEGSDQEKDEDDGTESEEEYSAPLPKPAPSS
Source text: These assays incorporate the use of synthetic tripeptide substrates. Amidation of these substrates is conveniently monitored by separation and quantification of the product ([…] and substrate tripeptide) using HPLC. The most sensitive of the assays developed utilizes monodansyl L-Tyr-Val-Gly as substrate. This compound can be detected at extremely low levels because the dansyl group is fluorescent.
In particular, the kinetic parameters Km and Vmax have been determined by examination of the effect of variation of substrate concentration upon enzymatic activity. […] The smaller the Km the greater the affinity. Vmax is the maximum velocity at which the enzyme will convert the substrate to product and is observed at saturating concentrations of substrate (i.e., the substrate is present in large excess over the enzyme).
In a typical amidation enzyme assay, the reation system (50 ul) would comprise enzyme (approximately 7 μg), dansyl L-Tyr-Val-Gly (up to 40 μM), L-ascorbic acid (3 mM), catalase (0 to 100 μg ml^-1), and copper sulfate (0 to 2 uM) in 60 mM TES buffer at pH 7.0. The reaction is initiated at 37° C. by the addition of enzyme and terminated after a defined period of time by the addition of 0.1 M EDTA (final concentration), which binds up copper making it unavailable for the enzyme.

alpha-amidating enzyme [3] = target: T1, alpha-amidating enzyme; test: comparison of assay systems / kinetic analysis of amidation of dansyl-Tyr-Val-Gly, D-Tyr-Val-Gly and 125I-D-Tyr-Val-Gly; format: biochemical
Protocol: I. Monodansyl L-Tyr-Val-Gly
The concentration of enzyme used in all experiments was left constant except where noted.
(§1) The reaction mixture for the conversion of the monodansyl substrate contained:
5 μl of 100 ug/mL bovine pancreatic catalase
5 μl containing 2 nmoles of substrate
The samples were prepared in duplicate and incubated at 37° C. for 10, 20 and 30 minutes time periods. The enzymatic reaction was halted by the addition of 10 ul 500 mM EDTA. Substrate and product were separated by RP HPLC using an Hewlett Packard-1090 liquid chromatography system, and quantitation was achieved using a HP-3392 integrator.
D-Tyr-Val-Gly and D-Tyr-Val-NH2 were iodinated using iodobeads from Pierce Chemical Company. The radiolabeied substrate and product were used to calibrate a sulfyl-propyl cation-exchange column. ^125 I D-Tyr-Val-Gly was added to 650 uM D-Tyr-Val-Gly and used as the substrate. The reaction mixture for the conversion of monodansyl substrate contained:
Samples were incubated for 10, 20, 30 minutes at 37° C. The reaction was stopped by addition of 500 mM EDTA. […] The conversion of radiolabeled substrate to product was linear with respect to time.
The reaction conditions used for the amidation of D-Tyr-Val-Gly are identical to those described for the dansyl and iodinated substrates. Substrate concentration in the reaction mixture was 650 uM. Separation of substrate and product is achieved by gradient elution on RP-HPLC using a HP-1090 liquid chromatography system. The column effluents were monitored at 280 nm. The level of sensitivity for this assay is much lower than that for either dansyl or iodinated substrates.
Furthermore, a somewhat more rigorous kinetic analysis has also been employed to compare the dansyl-Tyr-Val-Gly (Applicants') assay to the D-Tyr-Val-Gly (prior art) assay.

alpha-amidating enzyme [4] = target: T1, alpha-amidating enzyme; test: co-factor requirement of alpha-amidating enzyme for maximal activity; format: biochemical
[5] = iso-electric point of alpha-amidating enzyme; format: physicochemical
[6] = specific alpha-amidating activity, conversion of Dansyl-D-Tyr-Val-Gly to Dansyl-D-Tyr-Val-CONH2; format: biochemical; settings: homogeneous peak III enzyme, rat MTC tumor
Protocol: These and other objects will become apparent from a thorough reading of the present disclosure. […] All specific activity units set forth herein are based upon the conversion of Dansyl-D-Try-Val-Gly-COOH to Dansyl-D-Tyr-Val-CONH2. One mU is defined as the amount of activity needed to convert one nanomole (nmole) of Dansyl-D-Tyr-Val-Gly-COOH to one nmole of Dansyl-D-Tyr-Val-CONH2 per minute at 37° C. and pH 7.0 in the presence of ascorbate ions at a concentration of 3 mM (based on total reaction mixture including enzyme, substrate, co-factors, etc.), molecular oxygen in a molar excess over substrate and a concentration of cupric ions effective to maximize activity (usually about 2 μM depending on the state of purity of the enzyme).
Each purification step can be monitored for both protein content and the level of alpha-amidation activity. This information is used to calculate the specific activity of the enzyme which serves as an indicator of the relative purity of the enzyme.
Sephacryl S-300 (Pharmacia) was equilibrated in 50 mM Tris HCl pH 7.0 and poured into a K 50/100 column (Pharmacia) according to the manufacturer's instructions. The bed volume of the column was approximately 1.3 liters. The Sample was loaded onto the column in a volume representing approximately 3 percent of the bed volume of the column. Proteins were eluted from the column in 50 mM Tris HCl pH 7.0 at a flow rate of approximately 2 ml per minute.
as §1
The samples were prepared in duplicate and incubated at 37° C. for 10, 20 and 30 minutes time periods. The enzymatic reaction was halted by the addition of 10 ul 500 mM EDTA.

[7] = pH optimum of alpha-amidating enzyme; format: biochemical; settings: rat MTC tumor enzyme, N dansyl Tyr-Val-Gly substrate
Protocol: 2. The optimum pH for the activity of the enzyme was determined to be pH 5.0-5.5 using N dansyl Tyr-Val-Gly as the substrate (FIG. XVI). However, due to the enhanced stability of the enzyme at neutral pH, it may be beneficial to carry out the amidation reaction at such pH.

[8] = cited from earlier work

## recombinant human calcitonin: purified alpha-amidated recombinant human calcitonin (CGNLSTCMLGTYTQDFNKFHTFPQTAIGVGAP-NH2; ends and bridges not checked; UniProt P01258 85-116, looked up)
[1]
  biological activity (and characterization) compared with synthetic hormone: indistinguishable from synthetic human calcitonin

## monodansyl L-Tyr-Val-Gly [Dansyl-Tyr-Val-Gly]
alpha-amidating enzyme [2]; regardless of the state of purification of the enzyme
  Km: 1 to 2 µM
alpha-amidating enzyme [3]
  Km: 1.7 µM
  Vmax: 21 pmol product/min/μl

## recombinant hGHRF: recombinant, alpha-amidated human growth hormone releasing factor (YADAIFTNSYRKVLGQLSARKLLQDIMSRQQGESNQERGARARL-NH2; UniProt P01286 32-75, looked up)
[1]
  biological activity (and characterization) compared with synthetic hormone: indistinguishable from synthetic hGHRF

B1: peak III enzyme (MTC tumor): MTC tumor alpha-amidating enzyme peak eluting at 220 mM NaCl from Mono Q pH 6.0, purified to homogeneity (protein, UniProt P14925 36-976, looked up)
Peptidylglycine …: T1 sequence (P14925 36-976)
modifications: Mono Q peak III form
alpha-amidating enzyme [4]
  Cu++ required for maximal activity: ≤ 0.1 µM
[5]
  iso-electric point (pI): 4.8
[6]
  specific activity: 2,100 mU/mg protein
[7]
  pH optimum: 5.0-5.5

B2: peak II enzyme (MTC tumor): MTC tumor alpha-amidating enzyme peak eluting at 200 mM NaCl from Mono Q pH 6.0 (protein, UniProt P14925 36-976, looked up)
Peptidylglycine …: T1 sequence (P14925 36-976)
modifications: Mono Q peak II form
[5]
  iso-electric point (pI): approximately 5.8
[7]
  pH optimum: 5.0-5.5

B3: alpha-amidating enzyme from rat pituitaries: alpha-amidating enzyme partially purified from rat pituitaries (protein, UniProt P14925 36-976, looked up)
Peptidylglycine …: T1 sequence (P14925 36-976)
modifications: partially purified
[8]; pH levels below 6.5 or above 7.5
  enzyme activity outside pH 6.5-7.5: declined rapidly
[8]; pituitary, partially purified
  pH optimum: 7

B4: pure tumor enzyme: pure alpha-amidating enzyme from tumor (protein, UniProt P14925 36-976, looked up)
Peptidylglycine …: T1 sequence (P14925 36-976)
alpha-amidating enzyme [2]; dansyl L-Tyr-Val-Gly, pure tumor enzyme
  Vmax: about 5000 nmol product formed per mg protein

Source: patent US6319685A (Unigene Laboratories, Inc., priority 1987, dated 2001)
